This series in a line: label from the status in PepcDB records.

The results in this text go back to a protein production outcome set (Wang et al. 2014).

Consider “MTNKRVVQTFLATSALFLAMSGMSARAQDASAPAAGAPAPSAAAPMHHHGSGFKKLDTNGDGMVSRDEAKGHRWLEDHFDEIDTNHDGQISKDELAAWHKTHAGEMRGKMQARLDAKFKAADKNGDGALTREEMQAGLPKLARHFDEIDANHDGKVTEDEIRAFMKARHDAHRAQHGTPAAAVTPGGPSATKGE”, for which the protein production entry is “failed”.
On to “MTNLDEFLEELSSIESHSQKIVKIDEHLKKLDEETKEDEDEDAAKIIQDRSTAREAEIALLMDLRQNFLPPPSMSSSSLQPPSSSTLAPSSSSSLQPPAPLIDFFRSSVSYSHQPPSSSTLATSSSPSLQPPSMSSSSLQPPASLREFFTSSVSYSHQPSSSSTLATSSFFPSSMPYSVRPPDSSDRPSLREFFPSSPSSSIQPPESSSSKRARLSNIFPSPLSSSPSPFVNPFLRPQAQEPTIPNFINPIPQISPGLPALFPNPNPNPNPNPIPNPIRNPDLVWTNRLQLVFDDAVVRLGGLFSATPKAINELISEEGLTGDQIRSHLQVLRDRQKAIADKLALE”, for which the protein production result is “failed”.
Consider “MTNLKLFNFEGSKVRTVILDEEPFFVGIDVASILGYSNPQKAMRDHCKKPAESLVNDSLGRPRRTLVLSESDVYRLVLRSDLPSAEKFENWLMDEVLPSIRKHGAYMTDDTIEKAITDPDFLIRLATNLKEEKSKRLEAEQKIEAQRPKVLFADAVSDTEGTILIRDLAKLIQQNGVDIGEKRLFEWLRQNGYLISRRGTDYNRPTQKSMELGLFKIKETAIMRSSGAHTAITAKVTGKGQLYFVNKFLEQSLVAN”, for which the protein production result is recorded as “failed”.
Take “MTNMFSLLYPLISIVIGVVPLFIFKRNAYLLGIAAASYFTAIILKEIIQLSFRSFFITPTLPTYLSYGILTAIFEPGFAYLYLVLTKAKVNGQLGLSYGSYLAFYENAIFLGLLSLPNYLLLSVQFSVLSLALYGLERISSFILHLFWGFSSALSASKKNIKYLSVSMPYGMVDSVAAYYQLSHNISLVSTEIISLVVSISCLPIIVLWYKMDKRNQRLD”: the protein production result is listed as “failed”.
In the case of “MTNPGDGAAGAADRATLDHWRPRLAAIAAAAGQDDAAHDLGHLRRVWDAARAMLQAHPEADALVVLAASYLHDLVNLPKNHPERHLASRQAAAAARERLARAGFPAARLDAVAHAIEAHSFSAGIAPRTIEARIVQDADRLDALGPVGLVRMFHVGGSLGRALAHPSDPLAAQRALDDSRYTLDHIEAKLARLPHGMQTEAGRRLGEQRLAWLRDFRAAFSAQWGGGQLRLEHHHHHH”, the protein production result is “failed”.
As for “MTNTAAPATVSAGWADALLASFGQAGYAKAEPAILQPAEPFLDLSGEDIRKSLYLTTDAGGEELCLRPDLTIPVARDYLASSSAGKPAGFCYLGPVFRQRGGKRSEFLQAGIESFGRKDRAAADAEMLALALGATAAFGVAELDIRTGDVALFTALIDALDLYPVWRRRLIKDFNRKSDLAQDLEQLTLATATPRNEYEGVLAALAGSDRKAALALVTDLMSIAGASNVGGRSVAEIADRFLEQSTLKGGALPRDALDKIKRFLAISGSPGDALLQLRALAADAKLDIVAAIDEFEARIGFMAARGIDLSATRFSTSFGRGVDYYTGFEFELHRKDNGDEPLVAGGRYDGLLSQLGATAPIAAVGFSVWIEAFTDLAHPANSSAGSAT”, the protein production result is “failed”.
In the case of “MTPAELISRLEEAWLNEKFSPELLENKSELVECVMEQLTHMEENLQRVRKGDLKASVHRMEIDRIRFVLSSFLRSRLKKIEKFFPHVLEKEKSRADGDPSFLSPEEFAFAKEYLANTEVYLRAVALKHMPPNLQSVDMMKAVPEPCLDSFVFLRVKEKQENILVEPETDEQREYVVDLDEGSQHLMRYRTIAPLVASGAVQLI” it was “failed”.
As to “MTPHPARSKISPYRDIEIFMDLEDWSARLKVFADATRVRLLALLEQEELTVAELSAITRLAQPRVSTHLAKLKEAGLVRDRRAGVSAYYRFDEVSLDPAQRALWLALSTGSDDPLLRQDAERVAAVLANRAADQNWADSVAGDMERHYSPGRTWEALARTALPLLETGDVLDIASGDGVLAELVAPHATRYICIDTSARVVAAASERLRKLRNVEVREGDMHALPFPDASFDLVVLMHALTYAAKPAQAVAESARVLRPGGRLLLCSLAKHEHRAAVQAYGHVNLGFAAKELRKFVEKAGLDVSNLESVTREKRPPHFEVISLIAMKPGIGNRESGLVEGKSNASRRANA”, the protein production result is on record as “failed”.
For “MTPQIATILGLVIMFIVATALPINMGAVAFALAFIIGGVWVGLEGKEVLAGFPGDLFLTLVGITYLFAIAQKNGTIDLLVHWAVRAVRGRIVAIPWVMFVITGLLTAFGALGPAAVAIIGPVALRFAKQYRINPLMMGLLVIHGAQGGGFSPISVYGGITNKVVEKAGLDVSEMAVFLTSLGFNLMMAIICFCAFGGLKLMRRQELSLADAQYVAVAGDQASHRGFAIEGHGALVAPGGGTLSTDPLALEAVSITRDRVITLIGLLGLGVAALIYNLNVGLVSITVAVALALISPNAQKGAVDGISWSTVLLISGVVTYIAVLEKSGAVDYIGTGVSHIGMPLLGALLVCYVGGIVSAFASSAAVLGATIPLAVPFLMQGQLGAAGVICALAVSSTIVDVSPFSTNGALVVASAAKEERDGLFRRFLIYSGLVVLLGPLAAWLVFVVPGWL”, the protein production entry is recorded as “failed”.
As for “MTPRRHDNDYERRKWRQVAGHFGMGAAFGALFAGIVLFNNYFGLSSVIATSEAPTLVRIIFVVGVAGSFAFMAAITGFLFLVHED”, the protein production result was “failed”.
As for “MTQAASAAPQSAHSAKWKWAKRAFTAFFFIAVPVLLFMLVKNLDWQEVKKALASYKASTLAIAAVVAFASYATYCGFDILARYYTRHKLSIKQIVPVTFVCYAFNLNLSSWVGGIALRYRLYSRLGLEVSTITRILSLSLITNWLGYMLLAGFVFSMRFLELPEEWSIGTTTLQLIGFGLLAVCFSYLLACRFSKKRSWTIRDQEFNLPSMKQALMQASLGALNWALMAAVIYTLLPDKAFYPAILGVLLISSIAGVITHIPAGLGVLETVFITLLSHQFSKGSLLAALIGYRAIYFLLPLMIALVVYLVLEKRAKKMGEKNQRRMGQEANS”, the protein production entry is recorded as “failed”.
As to “MTQGTARAQQNNIPVGIALMLAATVVFALQDGISRHLASSYNTYMVVMIRYWFFAAFVIALAARSRGGLRAATRTAQPGLQIFRGLLLASEICVAVFAFTVLGLIESMAVFICYPLLVAALSGPVLGEKVGWRRWAAIGVGLVGVLIILQPGMGVFNPWAVVPLISALMFALYGLLTRYAARQDSTATSFFWTGVTGAVAMTAVGLWFWEPMSAPDWRWMALLCVSGALGHWLLIKCYEMAEASAVQPFAYFHLMWTAILGITVFGETLRSAVIIGAALIVAAGLFTLWRERAQSRSR”, the protein production result is reported as “failed”.
Regarding “MTQHRLNTSQWFGLLGWLVLCYAVAALGAMASIQAASFYAQLQRPAWAPPGWLFGSVWTVLYGMMAVSVWSVWRRGGWAGARVALTLFLVQLALNGLWSWLFFAWHLGAWAFTDIVALWLVLAATIGVFAKRQALAAWLLVPYLAWVSFAAALNFSVWQLNLQMLG”, the protein production result was “failed”.
On to “MTQHYLRSAAYRDFSIHSIYGMSDDDIHAMFARLRWSSDSHQACPACGAWAQHYRRPARQQWRCKECGRDFSVTSATAFSSRKKSLRSILLATFYYVTGVKGLAGLGLSRMGDYSNKAAHVALGKLREAIFRTQDFTPLTGVVEIDGGYFGGKPRKPNRRGLRNDQAIVDRIAGRPAKRPWHASGMTRTNWEKRKNKRVVMIFRQQGRPGEGAVRSIAAVARSENDKDAAKLIARYVSSEAIIMTDESPAYATVSATHTHYAVRHSHEYVSAEGVNENQAESFFSRLRRWEYGVSHGVRPAYLADYANEMAWREDVRRFSIRTQVEMLLIKALTVGHSRWWRGYYQGKRRGTEILMNQGIPPSSASGASAQ”, for which the protein production result is recorded as “failed”.
For “MTQKEISIIHPRPSSIVAALYTLRDLNVDVAILHGPPGCSFKHARLLEEDGIHVVTTGLDENGFVFGGHDKLVQVINKSIELFNPKILGVVGTCASMIIGEEMHEAVLEANPDIPVIEVEVHAGYHNNTKGVIFALESALDAGIIDHKEFERQEYLEHHHHHH”, the protein production result is “not failed”.
Turning to “MTQLFPGPIVRTPGLAELDARARDIFRRVVESYLETGEPVGSRTISKGGVALSPASIRNTMQDLAQLGLLDAPHTSAGRMPTHAGLRMFVDGFLEVGDVAEQEKRAIEARLAVKGRSFEEALAEASSILSGLAGGAGIVVTPVREGGVKHVEFVPLGGGQVLAVMVFEDGQVENRLMRQAPGVTPSALQEASNFLNARLRGRTLTEARTEMGGELDAARRQLNETAARLVEDGLAAWSGGEGDARSLIVRGQANLLADARAREDIDRVRQLFDDLSRRAQLIGLLDDVRDAEGVRIYIGAETRLFSLSGSSVIAAPYMTGRQKVLGAIGVIGPARLNYARVIPLVDYTARVLGRMMDG”, the protein production entry is recorded as “failed”.
In the case of “MTQLIKSLPGWLKLMLIFPIFFLNGVLLSLIINRFRELFDYIIIATLVTFLLKLTINFLVSKGIGKRLAIFAVITISFALIALGGITLIPLMGNQLGNLSQDIPRWLSGSQEHLANLKNSTLFLTLDNAGVNVDDLFQKAYLTLSKELDRIGQISLKVLTETIGGVVDTLVILVLTIFLLVGGDTFWQGILSWLPSPWEKKIPQYAGEIFRDYFISRLILAAGSSMARLVVFMALGIPYSILFAFSLGLASLIPFAGAVVTLIGTLVLLLKGWVVAVKFFVSAIVIDQITDNGVAPKLMGDKIGLNPVWILISIFIGAEIAGLLGVLLAVPIASVIKKVIDDMRAGKTENEEIDTEEQVEVLPESLA” it was “failed”.
With “MTQNNILLISGAILPVIITVIIGYISGKRKDFNWQQAGDINKIVMLYALPLSIFSNMVMTPRHIVMTMGPVAVAIILALILSFVIPLLVARYLFRRDLALSTLQALAIGSPAVPFIGTSVLAFLFGTVSASLITVSSITQNVFQLPLVMILMSVATGDKSQHISFGARVVNAIKQPVVWSPVIALIIVLADIHIPQTISMSLGLLGKASGGLALFAAGIVLYTRSIVITTATIITVIARNILVPGACYLILLKMGFSMEQIKEVVLTMAIPVGSIAIIIAMQYKTGEQEMASTMALSIIASIITMGGFIFLTF”, the protein production result is “failed”.
As for “MTQQLNHAKVNQHPGQATLPETAEGQVRTYEVKTYGCQMNVHDSERLSGLLEEAGYVAAPEDTTPDLVVFNTCAVRENADMRLYGTLGNLRSVKEKNPGMQIAVGGCLAQKDKDTVVKKAPWVDVVFGTHNIGSLPTLLQRAEHNAQAEVEIVDSLEQFPSVLSAKRESAYAGWVSVSVGCNNTCTFCIVPSLRGKEQDRRPGDILAEVQALVDQGVTEVTLLGQNVNAYGVNFVDPELERDRSAFSKLLRACGEIEGLERVRFTSPHPAEFTSDVIDAMAETPNICPQLHMPLQSGSDKVLKEMRRSYRSKKFLSILDEVRAKIPHASITTDIIVGFPGETEEDFQATLDVVKKARFTSAYTFQYSPRPGTPAAEYENQLPKEVVQERYERLMVVQEQVCEEENQKLIGTTVELLVQAGGGRKNDATKRMSGRARDGRLVHFAPEGDIDGEIRPGDFVTVTVTEAKPFFLIADSGVQTHRRTKAGDNSAVGQVPTTAPIGVGLGLPQIGAPKVAPATESACCSIN”, the protein production entry is reported as “failed”.
In the case of “MTQRSLADIQFQTTLEGVTPAQLGGFFEGWPNPPTPETLWRILDRAAVFVLARTPDGQVIGFVNALSDGILAASIPLLEVQAGWRSLGLGSELMRRVLTELGDLYMVDLSCDDDVVPFYERLGLKRANAMFLRRYDNQAGIPAE” it was “not failed”.
